The target of test [1] is RBM39-3xFLAG (human) (UniProt Q14498). The test can be described thus: anti-FLAG IP of RBM39-3xFLAG from H1155 cells treated with 10 µM indisulam, LC-MS/MS.
For test [2] the target is unchanged. Briefly: anti-FLAG IP of RBM39-3xFLAG from H1155 cells treated with DMSO (no indisulam), LC-MS/MS.
In the next test the target is DCAF15-3xFLAG (human) (UniProt Q66K64). The test can be described thus: pull-down of 100 nM RBM39Δ150 by DCAF15-3xFLAG on anti-FLAG beads with rising indisulam, western blot (FIG. 4C). In general terms: Immunoblotting shows a protein as a band on a membrane.
DCAF15-3xFLAG (human), sequence (Q66K64 whole entry): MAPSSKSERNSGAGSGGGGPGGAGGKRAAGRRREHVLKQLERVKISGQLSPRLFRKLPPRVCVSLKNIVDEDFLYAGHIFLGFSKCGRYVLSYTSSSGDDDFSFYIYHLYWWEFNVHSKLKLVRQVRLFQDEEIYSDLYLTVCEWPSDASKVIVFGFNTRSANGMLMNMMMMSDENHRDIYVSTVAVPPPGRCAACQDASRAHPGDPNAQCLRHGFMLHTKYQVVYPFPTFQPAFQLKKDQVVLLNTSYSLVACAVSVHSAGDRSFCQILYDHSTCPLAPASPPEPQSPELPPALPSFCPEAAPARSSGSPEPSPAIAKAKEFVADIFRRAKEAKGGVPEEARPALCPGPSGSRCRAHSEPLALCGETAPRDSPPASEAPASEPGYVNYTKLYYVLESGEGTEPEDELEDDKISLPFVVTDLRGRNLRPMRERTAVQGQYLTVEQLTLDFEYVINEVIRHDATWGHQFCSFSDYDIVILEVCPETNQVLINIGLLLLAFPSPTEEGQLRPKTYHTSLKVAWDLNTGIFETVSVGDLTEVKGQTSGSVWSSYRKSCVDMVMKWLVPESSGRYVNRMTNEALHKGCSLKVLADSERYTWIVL

RBM39-3xFLAG (human), sequence (Q14498 whole entry): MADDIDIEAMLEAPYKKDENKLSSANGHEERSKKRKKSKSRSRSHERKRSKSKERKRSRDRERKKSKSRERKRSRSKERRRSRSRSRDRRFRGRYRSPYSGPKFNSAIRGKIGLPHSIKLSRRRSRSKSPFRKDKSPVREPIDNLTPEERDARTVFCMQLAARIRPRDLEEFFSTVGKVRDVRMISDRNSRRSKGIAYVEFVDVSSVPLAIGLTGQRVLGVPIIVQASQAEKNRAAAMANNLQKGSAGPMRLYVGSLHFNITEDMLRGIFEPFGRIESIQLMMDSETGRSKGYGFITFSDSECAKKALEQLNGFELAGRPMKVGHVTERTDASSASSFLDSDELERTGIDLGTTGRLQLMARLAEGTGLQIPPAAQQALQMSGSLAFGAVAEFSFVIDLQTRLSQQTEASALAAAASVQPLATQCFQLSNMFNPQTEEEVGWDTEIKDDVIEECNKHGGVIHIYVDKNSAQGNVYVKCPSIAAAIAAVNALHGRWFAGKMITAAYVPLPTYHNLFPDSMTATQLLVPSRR

In the test with RBM39-3xFLAG (human) [1], FUS (from UniProt P35637 1-526) yielded an indisulam total (peptide count) of 6 peptides and an indisulam unique (peptide count) of 6 peptides. In the test with RBM39-3xFLAG (human) [2], this substance gave a DMSO total (peptide count) of 0 peptides and a DMSO unique (peptide count) of 0 peptides.

In the test with RBM39-3xFLAG (human) [1], PSMD11 (from UniProt O00231 2-422) displayed an indisulam total (peptide count) of 5 peptides and an indisulam unique (peptide count) of 5 peptides. Further, in the test with RBM39-3xFLAG (human) [2], the DMSO total (peptide count) stood at 0 peptides and the DMSO unique (peptide count) worked out at 0 peptides.

In the test with RBM39-3xFLAG (human) [1], TPI1 (from UniProt P60174 2-249) displayed an indisulam total (peptide count) of 4 peptides and an indisulam unique (peptide count) of 4 peptides. For the same substance, in the test with RBM39-3xFLAG (human) [2], the DMSO total (peptide count) worked out at 0 peptides and the DMSO unique (peptide count) was 0 peptides.

In the test with RBM39-3xFLAG (human) [1], DDX46 (from UniProt Q7L014 2-1031) gave an indisulam total (peptide count) of 6 peptides and an indisulam unique (peptide count) of 6 peptides. Moreover, in the test with RBM39-3xFLAG (human) [2], the DMSO total (peptide count) came out at 0 peptides and the DMSO unique (peptide count) was determined as 0 peptides.

Regarding HDX (from UniProt Q7Z353 1-690), in the test with RBM39-3xFLAG (human) [1], the indisulam total (peptide count) was 15 peptides and the indisulam unique (peptide count) was 14 peptides. Also, in the test with RBM39-3xFLAG (human) [2], the DMSO total (peptide count) turned out to be 0 peptides and the DMSO unique (peptide count) was found to be 0 peptides.

In the test with RBM39-3xFLAG (human) [1], PDIA3 (from UniProt P30101 25-505) returned an indisulam total (peptide count) of 4 peptides and an indisulam unique (peptide count) of 4 peptides. For the same substance, in the test with RBM39-3xFLAG (human) [2], the DMSO total (peptide count) is 0 peptides and the DMSO unique (peptide count) amounted to 0 peptides.

In the case of YWHAB (from UniProt P31946 1-246), in the test with RBM39-3xFLAG (human) [1], the indisulam total (peptide count) is 5 peptides and the indisulam unique (peptide count) was found to be 4 peptides. In the test with RBM39-3xFLAG (human) [2], this substance yielded a DMSO total (peptide count) of 0 peptides and a DMSO unique (peptide count) of 0 peptides.

In the test with RBM39-3xFLAG (human) [1], PSMC5 (from UniProt P62195 2-406) gave an indisulam total (peptide count) of 6 peptides and an indisulam unique (peptide count) of 6 peptides. For the same substance, in the test with RBM39-3xFLAG (human) [2], the DMSO total (peptide count) turned out to be 0 peptides and the DMSO unique (peptide count) was 0 peptides.

Take TPM3 (from UniProt P06753 2-285): in the test with RBM39-3xFLAG (human) [1], the indisulam total (peptide count) came to 4 peptides and the indisulam unique (peptide count) stood at 4 peptides. In the test with RBM39-3xFLAG (human) [2], the DMSO total (peptide count) was determined as 0 peptides and the DMSO unique (peptide count) stood at 0 peptides.

Regarding CUL4A (from UniProt Q13619 1-759), in the test with RBM39-3xFLAG (human) [1], the indisulam total (peptide count) was found to be 11 peptides and the indisulam unique (peptide count) is 11 peptides. In the test with RBM39-3xFLAG (human) [2], this substance displayed a DMSO total (peptide count) of 1 peptides and a DMSO unique (peptide count) of 1 peptides.

For RBM39Δ150 (from UniProt Q14498 151-530), the indisulam concentration at which the complex was apparent in the test with DCAF15-3xFLAG (human) is 0.1 µM.

Regarding “DKFZp686J1372 (from UniProt Q5HYB6 1-232)”, in the test with RBM39-3xFLAG (human) [1], the indisulam total (peptide count) worked out at 4 peptides and the indisulam unique (peptide count) was determined as 4 peptides. In the test with RBM39-3xFLAG (human) [2], this substance returned a DMSO total (peptide count) of 0 peptides and a DMSO unique (peptide count) of 0 peptides.

In the case of DDB1 (from UniProt Q16531 2-1140), in the test with RBM39-3xFLAG (human) [1], the indisulam total (peptide count) came to 52 peptides and the indisulam unique (peptide count) came out at 46 peptides. In the test with RBM39-3xFLAG (human) [2], this substance displayed a DMSO total (peptide count) of 5 peptides and a DMSO unique (peptide count) of 4 peptides.

In the test with RBM39-3xFLAG (human) [1], ANXA2 (from UniProt P07355 2-339) yielded an indisulam total (peptide count) of 11 peptides and an indisulam unique (peptide count) of 10 peptides. Also, in the test with RBM39-3xFLAG (human) [2], the DMSO total (peptide count) amounted to 1 peptides and the DMSO unique (peptide count) was 1 peptides.

Take DDA1 (from UniProt Q9BW61 2-102): in the test with RBM39-3xFLAG (human) [1], the indisulam total (peptide count) is 4 peptides and the indisulam unique (peptide count) amounted to 4 peptides. In the test with RBM39-3xFLAG (human) [2], this substance gave a DMSO total (peptide count) of 0 peptides and a DMSO unique (peptide count) of 0 peptides.

For PPM1B (from UniProt O75688 2-479), in the test with RBM39-3xFLAG (human) [1], the indisulam total (peptide count) came out at 5 peptides and the indisulam unique (peptide count) came to 5 peptides. Moreover, in the test with RBM39-3xFLAG (human) [2], the DMSO total (peptide count) is 0 peptides and the DMSO unique (peptide count) is 0 peptides.

On to CUL4B (from UniProt Q13620 1-913), for which, in the test with RBM39-3xFLAG (human) [1], the indisulam total (peptide count) was 16 peptides and the indisulam unique (peptide count) amounted to 15 peptides. For the same substance, in the test with RBM39-3xFLAG (human) [2], the DMSO total (peptide count) was determined as 0 peptides and the DMSO unique (peptide count) is 0 peptides.
